Assay results as given in patent US20130288364, “ENGINEERED KINETOCHORES AND USES THEREOF” (Whitehead Institute for Biomedical Research, published 2013).

What was measured:
CENP-T/CENP-W complex = CENP-T/CENP-W complex (Homo sapiens, UniProt Q96BT3;Q5EE01 Q96BT3:1-561,Q5EE01:1-88); assay: EMSA; 10 mM Tris pH 7.9, 150 mM KCl, 1 mM EDTA, 4 mM DTT, room temperature; 500 ng protein, 50 ng probe; conditions: tags: 6xHis-CENP-T (full length), untagged CENP-W, co-expressed from pST39 in bacteria; Gene ID 80152 / 387103; label: biotin
Experimental: (§1) In vitro DNA binding was assessed by Electro Mobility Shift Assay (EMSA). 500 ng of the indicated protein was incubated for 10 minutes at room temperature in binding buffer (10 mM Tris pH 7.9, 150 mM KCl, 1 mM EDTA, 4 mM DTT. 50 ng of a 20 bp biotinylated double stranded DNA probe […] corresponding to bp 21-40 of the alpha satellite DNA sequence was then added, and incubated for a further 20 minutes. Samples were then run on a 4% non denaturing arylamide gel, semi-dry transferred to nitrocellulose membrane, and blots processed using the Chemiluminescent nucleic acid detection system (Thermo) according to manufacturers instructions. Biotinylated DNA probe with detected with HRP-coupled streptavidin (Thermo).

CENP-T-ΔN/CENP-W complex = CENP-T-ΔN/CENP-W complex (Homo sapiens, UniProt Q96BT3;Q5EE01 Q96BT3:288-561,Q5EE01:1-88); assay: EMSA; retains DNA binding activity; conditions: tags: 6xHis-CENP-T, untagged CENP-W; label: biotin
Experimental: as §1

Chain of CENP-T-ΔN/CENP-W complex (Q96BT3 288-561, stated change not applied, chain 1 of 2): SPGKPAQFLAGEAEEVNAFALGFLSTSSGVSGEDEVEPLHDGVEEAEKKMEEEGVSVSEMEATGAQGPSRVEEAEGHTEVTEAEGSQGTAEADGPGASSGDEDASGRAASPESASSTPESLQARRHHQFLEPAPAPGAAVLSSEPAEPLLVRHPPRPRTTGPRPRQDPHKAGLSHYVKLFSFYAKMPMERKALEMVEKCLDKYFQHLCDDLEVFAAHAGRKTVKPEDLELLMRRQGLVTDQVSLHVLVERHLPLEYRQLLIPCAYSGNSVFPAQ
Chain of CENP-T-ΔN/CENP-W complex (Q5EE01 whole entry, stated change not applied, chain 2 of 2): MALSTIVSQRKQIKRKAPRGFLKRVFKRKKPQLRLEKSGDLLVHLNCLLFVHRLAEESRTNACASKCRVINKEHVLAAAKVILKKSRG
Chain of CENP-T/CENP-W complex (Q96BT3 whole entry, chain 1 of 2): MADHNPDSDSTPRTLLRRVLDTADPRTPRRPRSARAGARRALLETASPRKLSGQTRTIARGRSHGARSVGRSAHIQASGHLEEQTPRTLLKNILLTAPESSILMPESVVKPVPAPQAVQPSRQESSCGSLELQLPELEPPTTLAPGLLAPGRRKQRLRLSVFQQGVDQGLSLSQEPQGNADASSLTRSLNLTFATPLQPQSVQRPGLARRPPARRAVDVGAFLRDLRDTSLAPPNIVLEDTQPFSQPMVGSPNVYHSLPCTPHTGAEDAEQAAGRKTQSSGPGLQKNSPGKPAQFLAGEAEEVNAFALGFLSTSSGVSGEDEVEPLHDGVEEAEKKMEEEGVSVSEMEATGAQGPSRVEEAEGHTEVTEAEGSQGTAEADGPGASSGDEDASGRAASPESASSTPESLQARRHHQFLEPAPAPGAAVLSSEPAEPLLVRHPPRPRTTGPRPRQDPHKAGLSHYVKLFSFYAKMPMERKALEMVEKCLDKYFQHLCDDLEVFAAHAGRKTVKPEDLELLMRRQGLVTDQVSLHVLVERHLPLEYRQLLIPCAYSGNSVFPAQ
Chain of CENP-T/CENP-W complex (Q5EE01 whole entry, chain 2 of 2): as the sequence (Q5EE01 whole entry, stated change not applied, chain 2 of 2) above

B1: alpha-satellite 20 bp probe (bp 21-40) (dsDNA)
DNA 1: CCTTTGAGGCCTTCGTTGGA
DNA 2: TCCAACGAAGGCCTCAAAGG
B1: binds (CENP-T/CENP-W complex); binds (CENP-T-ΔN/CENP-W complex).
